# Laboratory results: patent US12678474B2, “Screening of fixed-point coupling sites of cysteine-modified antibody-toxin conjugate (TDC)” (SICHUAN BAILI PHARMACEUTICAL CO. LTD., priority 2017, dated 2026)
# Changes are numbered by the printed parent chain.
# B1: 2A1-HC-Cys379ins: 2A1 antibody with cysteine inserted at heavy chain position 379 (SEQ ID NO: 38) (antibody)
# heavy: DVQLQESGPSLVKPSQSLSLTCTVTGYSITSDFAWNWIRQFPGNKLEWMGYISYSGNTRYNPSLKSRISITRDTSKNQFFLQLNSVTIEDTATYYCVTAGRGFPYWGQGTLVTVSAASTKGPSVFPLAPSSKSTSGGTAALGCLVKDYFPEPVTVSWNSGALTSGVHTFPAVLQSSGLYSLSSVVTVPSSSLGTQTYICNVNHKPSNTKVDKRVEPKSCDKTHTCPPCPAPEFLGGPSVFLFPPKPKDTLMISRTPEVTCVVVDVSHEDPEVKFNWYVDGVEVHNAKTKPREEQYNSTYRVVSVLTVLHQDWLNGKEYKCKVSNKALPAPIEKTISKAKGQPREPQVYTLPPSRDELTKNQVSLTCLVKGFYPSDIAVEWECSNGQPENNYKTTPPVLDSDGSFFLYSKLTVDKSRWQQGNVFSCSVMHEALHNHYTQKSLSLSPG
# light: DILMTQSPSSMSVSLGDTVSITCHSSQDINSNIGWLQQRPGKSFKGLIYHGTNLDDEVPSRFSGSGSGADYSLTISSLESEDFADYYCVQYAQFPWTFGGGTKLEIKRTVAAPSVFIFPPSDEQLKSGTASVVCLLNNFYPREAKVQWKVDNALQSGNSQESVTEQDSKDSTYSLSSTLTLSKADYEKHKVYACEVTHQGLSSPVTKSFNRGEC
# B2: 2A1-HC-Cys259ins: 2A1 antibody with cysteine inserted at heavy chain position 259 (SEQ ID NO: 28) (antibody)
# heavy: DVQLQESGPSLVKPSQSLSLTCTVTGYSITSDFAWNWIRQFPGNKLEWMGYISYSGNTRYNPSLKSRISITRDTSKNQFFLQLNSVTIEDTATYYCVTAGRGFPYWGQGTLVTVSAASTKGPSVFPLAPSSKSTSGGTAALGCLVKDYFPEPVTVSWNSGALTSGVHTFPAVLQSSGLYSLSSVVTVPSSSLGTQTYICNVNHKPSNTKVDKRVEPKSCDKTHTCPPCPAPEFLGGPSVFLFPPKPKDTLMISRTPEVTCVCVVDVSHEDPEVKFNWYVDGVEVHNAKTKPREEQYNSTYRVVSVLTVLHQDWLNGKEYKCKVSNKALPAPIEKTISKAKGQPREPQVYTLPPSRDELTKNQVSLTCLVKGFYPSDIAVEWESNGQPENNYKTTPPVLDSDGSFFLYSKLTVDKSRWQQGNVFSCSVMHEALHNHYTQKSLSLSPG
# light: B1 light
# B3: 2A1-HC-Cys355ins: 2A1 antibody with cysteine inserted at heavy chain position 355 (SEQ ID NO: 32) (antibody)
# heavy: DVQLQESGPSLVKPSQSLSLTCTVTGYSITSDFAWNWIRQFPGNKLEWMGYISYSGNTRYNPSLKSRISITRDTSKNQFFLQLNSVTIEDTATYYCVTAGRGFPYWGQGTLVTVSAASTKGPSVFPLAPSSKSTSGGTAALGCLVKDYFPEPVTVSWNSGALTSGVHTFPAVLQSSGLYSLSSVVTVPSSSLGTQTYICNVNHKPSNTKVDKRVEPKSCDKTHTCPPCPAPEFLGGPSVFLFPPKPKDTLMISRTPEVTCVVVDVSHEDPEVKFNWYVDGVEVHNAKTKPREEQYNSTYRVVSVLTVLHQDWLNGKEYKCKVSNKALPAPIEKTISKAKGQPREPQVYTLPPSRDELCTKNQVSLTCLVKGFYPSDIAVEWESNGQPENNYKTTPPVLDSDGSFFLYSKLTVDKSRWQQGNVFSCSVMHEALHNHYTQKSLSLSPG
# light: B1 light
# B4: 2A1-HC-Cys386ins: 2A1 antibody with cysteine inserted at heavy chain position 386 (SEQ ID NO: 40) (antibody)
# heavy: B1 heavy with C382S, S383N, N384G, G385Q, Q386P, P387E, E388N, N389C
# light: B1 light
# B5: 2A1-HC-Cys255ins: 2A1 antibody with cysteine inserted at heavy chain position 255 (SEQ ID NO: 24) (antibody)
# heavy: B2 heavy with V258C, T259V, C260T, V261C, C262V
# light: B1 light
# B6: 2A1-HC-Cys258ins: 2A1 antibody with cysteine inserted at heavy chain position 258 (SEQ ID NO: 26) (antibody)
# heavy: B2 heavy with V261C, C262V
# light: B1 light
# B7: 2A1-HC-Cys254ins: 2A1 antibody with cysteine inserted at heavy chain position 254 (SEQ ID NO: 22) (antibody)
# heavy: B2 heavy with E257C, V258E, T259V, C260T, V261C, C262V
# light: B1 light
# B8: 2A1-HC-Cys354ins: 2A1 antibody with cysteine inserted at heavy chain position 354 (SEQ ID NO: 30) (antibody)
# heavy: B3 heavy with L357C, C358L
# light: B1 light
# B9: 2A1-HC-Cys378ins: 2A1 antibody with cysteine inserted at heavy chain position 378 (SEQ ID NO: 36) (antibody)
# heavy: B1 heavy with E381C, C382E
# light: B1 light
# B10: 2A1-HC-Cys357ins: 2A1 antibody with cysteine inserted at heavy chain position 357 (SEQ ID NO: 34) (antibody)
# heavy: B3 heavy with C358T, T359K, K360C
# light: B1 light
# Target: T1, Recombinant EGFRVIII-His*6 antigen (Homo sapiens, UniProt P00533, DELINS30-297G)
# T1 construct: His*6
# Test: ELISA relative affinity for EGFRvIII
# Type: binding
# Conditions: not given
# Description: Insertion Mutation Modification and Parent Antibody 2A1 for EGFRvIII • ELISA was used to compare the relative affinities of 2A1-LC-Cys110ins-mc-vc-PAB-MMAE TDC, 2A1-LC-Cys111ins-mc-vc-PAB-MMAE TDC, 2A1-LC-Cys142ins-mc-vc-PAB-MMAE TDC, 2A1-HC-Cys254ins-mc-vc-PAB-MMAE TDC, 2A1-HC-Cys255ins-mc-vc-PAB-MMAE TDC, 2A1-HC-Cys258ins-mc-vc-PAB-MMAE TDC, 2A1-HC-Cys259ins-mc-vc-PAB-MMAE TDC, 2A1-HC-Cys354ins-mc-vc-PAB-MMAE TDC, 2A1-HC-Cys355ins-mc-vc-PAB-MMAE TDC, 2A1-HC-Cys357ins-mc-vc-PAB-MMAE TDC, 2A1-HC-Cys378ins-mc-vc-PAB-MMAE TDC, 2A1-HC-Cys379ins-mc-vc-PAB-MMAE TDC, 2A1-HC-Cys386ins-mc-vc-PAB-MMAE TDC, 2A1-HC-Cys387ins-mc-vc-PAB-MMAE TDC, 2A1-HC-Cys410ins-mc-vc-PAB-MMAE TDC, and 2A1 for EGFRvIII. The specific process used was as follows:
# Recombinant […]-His*6 antigen was used to coat plates; fish skin gelatin was used as a seal; dilution of each insertion mutant antibody was performed separately, up to a maximum concentration 10 μg/ml and a 4-fold gradient dilution was performed for a total of 11 concentrations; HRP-labeled secondary antibodies were used for incubation; TMB was used for development and absorption detection was performed at 450 nm.
row,Molecule,Affinity for EGFRvIII relative to 2A1 (in words)
1,B1,maintained 2A1 affinity
2,B2,maintained 2A1 affinity
3,B3,maintained 2A1 affinity
4,B4,maintained 2A1 affinity
5,B5,maintained 2A1 affinity
6,B6,maintained 2A1 affinity
7,B7,maintained 2A1 affinity
8,B8,maintained 2A1 affinity

# Same assay, conditions: EGFRvIII-coated plates, A450, read-out: EC50 (nM), mutant antibody affinity
row,Molecule,EC50 [nM]
1,B1,0.0409
2,B2,0.0431
3,B3,0.0415
4,B4,0.0435
5,B5,0.039
6,B6,0.0423
7,B9,0.0404
8,B7,0.0456
9,B10,0.0403
10,B8,0.0405

# System: EGFRwt-overexpressing human skin squamous cell carcinoma cell line A431
# Test: MTS cytotoxicity (cell viability) assay, A431
# Type: cell-based
# Conditions: antibodies; 72 hours
# Protocol: (§1) TDC cytotoxic activity was determined via the following experimental procedure: TDC was added to EGFR-overexpressing or […]-expressing human tumor cell culture medium, and cell viability was determined after 72 hours of cell culture. Cell-based in vitro experiments were used to determine cell viability, cytotoxicity and programmed cell death induced by TDC constituted by the present invention.
# (§2) In vitro efficacy of antibody-toxin conjugates was determined via a cell proliferation assay. A CellTiter ^96® AqueousOne Solution Cell was Proliferation Assay purchased commercially from Promega Corp. (Madison, WI). CellTiter ^96® Aqueous One Solution Cell Proliferation Assay (a) is a colorimetric method used to detect the number of living cells in cell proliferation and cytotoxicity experiments. The above reagent contains the novel tetrazole compound [3-(4,5-dimethylthiazol-2-yl)-5-(3-carboxymethoxyphenyl)-2-(4-sulfophenyl)-2H-tetrazolium, inner salt; MTS) as well as an electronic coupling agent (phenazine ethosulfate; PES). […] This convenient “single solution” model is an improvement on the first generation of the CellTiter ^96® Aqueous Assay, in which the electronic coupling agent PMS was supplied separately from the MTS solution. MTS (Owen's reagent) is reduced by cellular organisms into a colored formazan product, which can be directly dissolved in culture medium (FIG. 1). This conversion is likely facilitated by NADPH NADH produced by dehydrogenase present in metabolically active cells. For the assay, a small amount of CellTiter ^96® Aqueous One Solution Reagent is added directly to the medium present in the wells of the culture plate, after which incubation is performed for 1 to 4 hours, followed by reading of the absorbance value at 490 nm using a microplate reader.
# (§3) The amount of formazan product detected at 490 nm is proportional to the number of viable cells in culture. Because the formazan product of MTS is soluble in tissue culture medium, CellTiter ^96® Aqueous One Solution Assay requires fewer steps than the MTT or INT methods. A431 (EGFR-overexpressing cells) and U87-[…] (an […] mutant stable cell line) were used in the present invention as an investigative system for performing in vitro efficacy assays. In 96-well plates, cells were plated at 6000 cells/well and 24 hours later, antibody spiking was carried out. […] Cell viability was assayed via MTS 72 hours after treatment.
row,Molecule,IC50 [µM]
1,B1,> 10
2,B2,> 10
3,B3,> 10
4,B4,> 10
5,B5,> 10
6,B6,> 10
7,B9,> 10
8,B7,> 10
9,B10,> 10
10,B8,> 10

# System: EFGRvIII-overexpressing human glioma cell line U87-EGFRvIII
# Test: MTS cytotoxicity (cell viability) assay, U87-EGFRvIII
# Type: cell-based
# Conditions: antibodies; 72 hours; read-out: IC50, U87MG-EGFRvIII (MTS)
# Protocol: as §1, §2, §3
row,Molecule,IC50 [µM]
1,B1,> 10
2,B2,> 10
3,B3,> 10
4,B4,> 10
5,B5,> 10
6,B6,> 10
7,B9,> 10
8,B7,> 10
9,B10,> 10
10,B8,> 10
